# Laboratory results: paper PMC3618186 (2013)
# Molecular target: the molecule itself
# Assay: sedimentation equilibrium AUC
protein,measurement,value
p150Glued CC1 CC1 (protein) SKEEEGLRAQVRDLEEKLETLRLKRAEDKAKLKELEKHKIQLEQVQEWKSKMQEQQADLQRRLKEARKEAKEALEAKERYMEEMADTADAIEMATLDKEMAEERAESLQQEVEALKERVDELTTDLEILKAEIEEKGSDGAASSYQLKQLEEQNARLKDALVRMRDLSSSEKQEHVKLQKLMEKKNQELEVVRQQRERLQEELSQAESTIDELKEQVDAALGAEEMVEMLTDRNLNLEEKVRELRETVGDLEAMNEMNDELQENARETELELREQLDMAGARVREAQKRVEAAQETVADYQQTIKKYRQLTAHLQDVNRELTNQQEASVERQQQ,Kd,< 1 nM
